From article PMC7278358, “Kinetic parameters of human aspartate/asparagine–β-hydroxylase suggest that it has a possible function in oxygen sensing” (The Journal of Biological Chemistry, 2020)
“And” between values parts separate entries of the source, which are not always exact repeats. Equal entries are not always repeated. Where two headings read alike, the source gives them in different places. Blank lines part the entries; values can stand above or below the molecule they belong to. Positions of bridges follow the written chain, without caps; N, C: chain ends. Non-standard residues stand in square brackets, D forms with d. No end group written: not given here.

Assays:
human His6–AspH315–758 [1] = biological target: T1, human His6–AspH315–758 (Homo sapiens, UniProt Q12797); test: AspH steady-state kinetics from initial hydroxylation rates (SPE-MS, Michaelis–Menten); format: biochemical
T1 construct: a pET-28a(+) vector encoding for N-terminal His6-tagged AspH315–758 (His6–AspH315–758) was transformed into Escherichia coli BL21 (DE3) cells; made in house; host or cells: Escherichia coli BL21 (DE3)
T1 sequence (Q12797 315-758): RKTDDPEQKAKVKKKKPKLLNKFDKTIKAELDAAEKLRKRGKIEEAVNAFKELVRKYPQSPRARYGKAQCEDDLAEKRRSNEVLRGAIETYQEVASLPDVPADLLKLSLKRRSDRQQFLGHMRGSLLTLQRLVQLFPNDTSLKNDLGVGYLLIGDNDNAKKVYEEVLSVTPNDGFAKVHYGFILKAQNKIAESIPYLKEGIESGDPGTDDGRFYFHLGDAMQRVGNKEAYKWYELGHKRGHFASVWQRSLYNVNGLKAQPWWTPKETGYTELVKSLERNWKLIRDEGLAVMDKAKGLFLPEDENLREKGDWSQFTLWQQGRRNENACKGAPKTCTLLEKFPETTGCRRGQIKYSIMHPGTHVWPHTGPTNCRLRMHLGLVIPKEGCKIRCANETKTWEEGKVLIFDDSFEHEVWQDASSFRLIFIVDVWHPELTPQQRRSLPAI
Description: (§1) The reactions were monitored with a rate of 1 sample/25 s using the same SPE-MS configuration as described above. The data were analyzed as described above, and the slopes of the initial reaction rates (Fig. S6) were fitted to a Michaelis-Menten plot using nonlinear regression (GraphPad Prism 5). […] The reactions were monitored by SPE-MS with a rate of 1 sample/25 s using identical configurations as before. The data were analyzed as described, and the slopes of the initial reaction rates (Fig. […] The Morrison equation is as follows, where I is the inhibitor concentration, Ki is the dissociation constant of the inhibitor, ET is the total concentration of active enzyme, and vi/v0 is the fractional enzyme activity ([94]).

[2] = test system: human 2OG oxygenases, including the PHDs and FIH; conditions: read-out: 2OG Km app, most other human 2OG oxygenases; cited from earlier work
bovine AspH = test system: bovine AspH; set-up: method as in PMID 2187868; conditions: cited from earlier work
[3] = biological target: T2, His6–AspH_(315–758) (human) (UniProt Q12797)
T2 sequence: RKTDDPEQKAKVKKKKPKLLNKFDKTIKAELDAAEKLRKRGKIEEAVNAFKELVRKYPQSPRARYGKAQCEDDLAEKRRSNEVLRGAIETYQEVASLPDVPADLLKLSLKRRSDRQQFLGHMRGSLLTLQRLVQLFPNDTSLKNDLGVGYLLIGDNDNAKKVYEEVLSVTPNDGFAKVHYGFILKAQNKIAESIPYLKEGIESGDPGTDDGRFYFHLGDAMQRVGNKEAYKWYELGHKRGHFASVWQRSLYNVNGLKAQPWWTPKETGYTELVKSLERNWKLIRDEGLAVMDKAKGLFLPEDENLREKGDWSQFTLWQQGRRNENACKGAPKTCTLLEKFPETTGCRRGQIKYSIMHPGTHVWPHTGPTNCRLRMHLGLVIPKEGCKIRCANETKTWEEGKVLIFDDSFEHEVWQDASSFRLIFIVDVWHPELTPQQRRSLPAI

[4] = biological target: T2, His6–AspH_(315–758) (human); remark: listed apart in the source
human His6–AspH315–758 [5] = biological target: T1, human His6–AspH315–758; test: AspH activity assay: SPE-MS time course of peptide hydroxylation; format: biochemical; conditions: 0.1 μM His6–AspH315–758, 2.0 μM peptide, 100 μM LAA, 10 μM FAS, 10 μM 2OG, 50 mM HEPES pH 7.5, 20 °C
Description: The substrate mixture (1.0 ml) containing 2.4 μM peptide, 120 μM LAA, 12 μM FAS, and 12 μM 2OG in 50 mM HEPES buffer (pH 7.5) was added into a well of a 2-ml volume 96-well assay plate (Greiner) at 20 °C under an ambient atmosphere. A blank sample was analyzed using a RapidFire RF 360 high-throughput sampling robot (Agilent) attached to an Agilent 6530 accurate mass quadrupole TOF mass spectrometer operated in the positive ionization mode. The enzyme mixture (0.2 ml), containing 0.6 μM His6–AspH315–758 in 50 mM HEPES buffer (pH 7.5), was then added to the well and thoroughly mixed. The RapidFire sampling robot was programmed to analyze 1 sample/min. The following SPE-MS conditions were used: assay samples were aspirated under vacuum for 0.4 s and loaded onto a C4 SPE cartridge. After loading, the C4 SPE cartridge was washed with 0.1% (v/v) aqueous formic acid to remove nonvolatile buffer salts (5 s, 1.5 ml/min). The peptide was then eluted from the SPE cartridge with 0.1% (v/v) aqueous formic acid in 85/15 (v/v) acetonitrile/water into the mass spectrometer (5 s, 1.25 ml/min). The SPE cartridge was re-equilibrated with 0.1% (v/v) aqueous formic acid (1 s, 1.25 ml/min). The mass spectrometer parameters were capillary voltage (3500 V), fragmentor voltage (150 V), gas temperature (350 °C), gas flow (12 liters/min). The m/z + 2 charge states of the substrate peptide and the product (hydroxylated) peptide were used to extract ion chromatogram data; peak areas were integrated using RapidFire Integrator software (Agilent). The data were exported into Microsoft Excel and used to calculate the percentage of conversion of the hydroxylation reaction using the equation: % conversion = 100 × (integral product peptide)/(integral substrate peptide + integral product peptide).

[6] = substrate: O=C1O[C@H]([C@@H](O)CO)C(O)=C1O; test: AspH steady-state kinetics from initial hydroxylation rates (SPE-MS, Michaelis–Menten); format: biochemical, human; conditions: other: LAA varied; 50 μM FAS, 50 μM 2OG; hFX–CP101–119 substrate; n = 3; pH 7.5; 20.0 °C
Description: as §1

[7] = 2OG varied, 50 μM FAS, hFX–CP101–119 substrate, n = 3
[8] = Fe(II) varied, in the absence of LAA, 50 μM 2OG, hFX–CP101–119 substrate, n = 3
[9] = Fe(II) varied, in the presence of LAA (100 μM), 50 μM 2OG, hFX–CP101–119 substrate, n = 3

Km of AspH for the peptide substrate (steady-state kinetics of peptide hydroxylation, SPE-MS, 50 mM HEPES pH 7.5, 20 °C) [3]: 3 μM
Molecule: hC1r–CP_(165–183) (from UniProt P00736 165-183) (peptide)

Km of AspH for the peptide substrate (steady-state kinetics of peptide hydroxylation, SPE-MS, 50 mM HEPES pH 7.5, 20 °C) [3]: 36.5 μM
Molecule: hC1s–CP_(147–165) (from UniProt P09871 147-165) (peptide)

hydroxylation of the peptide by AspH (SPE-MS), t = 15 min to 200 min [4]: < 1%
Molecule: hFXII–CP_(110–128) (from UniProt P00748 110-128) (peptide)

Km of AspH for the peptide substrate (steady-state kinetics of peptide hydroxylation, SPE-MS, 50 mM HEPES pH 7.5, 20 °C) [3]: 1.19 μM
Molecule: hFX–CP_(101–119) (from UniProt P00742 101-119) (peptide)

Km of AspH for the peptide substrate (steady-state kinetics of peptide hydroxylation, SPE-MS, 50 mM HEPES pH 7.5, 20 °C) [3]: 1.71 μM
Molecule: hProC–CP_(111–129) (from UniProt P04070 111-129) (peptide)

More lines, now with the values behind:

Molecule: O=C(O)CCC(=O)C(=O)O [2OG, 2-oxoglutarate]
kcat (human His6–AspH315–758 [1]; [7]): 0.19 ± 0.03 s⁻¹
kcat/Km (human His6–AspH315–758 [1]; [7]): 320000 ± 70000 M⁻¹ s⁻¹
vmax app (human His6–AspH315–758 [1]; 2OG varied, 50 μM FAS, monitoring hydroxylation of hFX–CP101–119, pH 7.5, 20 °C, n = 3): 0.0168 ± 0.0005 µM/s
Km (human His6–AspH315–758 [1]; 2OG varied, 50 μM FAS, monitoring hydroxylation of hFX–CP101–119, pH 7.5, 20 °C, n = 3, read-out: Km app): ~0.6 µM and 0.6 µM
Km [2]: 1 to 25 µM
Km (bovine AspH; read-out: 2OG Km app): ~5 µM

Molecule: ammonium iron(II) sulfate hexahydrate [Fe(II)]
vmax app (human His6–AspH315–758 [1]; Fe(II) (FAS) varied, in the absence of LAA, 50 μM 2OG, monitoring hydroxylation of hFX–CP101–119, pH 7.5, 20 °C, n = 3): 0.0168 ± 0.0004 µM/s
Km (human His6–AspH315–758 [1]; Fe(II) (FAS) varied, in the absence of LAA, 50 μM 2OG, monitoring hydroxylation of hFX–CP101–119, pH 7.5, 20 °C, n = 3, read-out: Km app): 4.76 ± 0.48 µM
vmax app (human His6–AspH315–758 [1]; Fe(II) (FAS) varied, in the presence of LAA (100 μM), 50 μM 2OG, monitoring hydroxylation of hFX–CP101–119, pH 7.5, 20 °C, n = 3): 0.0171 ± 0.0005 µM/s
Km (human His6–AspH315–758 [1]; Fe(II) (FAS) varied, in the presence of LAA (100 μM), 50 μM 2OG, monitoring hydroxylation of hFX–CP101–119, pH 7.5, 20 °C, n = 3, read-out: Km app): 1.42 ± 0.16 µM
kcat (human His6–AspH315–758 [1]; [8]): 0.19 ± 0.03 s⁻¹
kcat/Km (human His6–AspH315–758 [1]; [8]): 40000 ± 10000 M⁻¹ s⁻¹
kcat (human His6–AspH315–758 [1]; [9]): 0.19 ± 0.03 s⁻¹
kcat/Km (human His6–AspH315–758 [1]; [9]): 130000 ± 30000 M⁻¹ s⁻¹
Km (bovine AspH; read-out: Km app for Fe(II)): 3 µM

Molecule: hFX–CP101–119: thioether-linked cyclic peptide of hFX amino acids 101–119, Cys110 thiol linked to N-terminal chloroacetyl group, C-terminal amide ({CH2CO}-[dA]KDGLGEYTCTSLEGFEGK-NH2; thioether N-10; SMILES CC(C)C[C@@H]1NC(=O)CNC(=O)[C@H](CC(=O)O)NC(=O)[C@H](CCCCN)NC(=O)[C@@H](C)NC(=O)CSC[C@@H](C(=O)N[C@H](C(=O)N[C@@H](CO)C(=O)N[C@@H](CC(C)C)C(=O)N[C@@H](CCC(=O)O)C(=O)NCC(=O)N[C@@H](Cc2ccccc2)C(=O)N[C@@H](CCC(=O)O)C(=O)NCC(=O)N[C@@H](CCCCN)C(N)=O)[C@@H](C)O)NC(=O)[C@H]([C@@H](C)O)NC(=O)[C@H](Cc2ccc(O)cc2)NC(=O)[C@H](CCC(=O)O)NC(=O)CNC1=O)
vmax (human His6–AspH315–758 [1]; peptide as varied substrate, 0.1 μM His6–AspH315–758, 100 μM LAA, 20 μM FAS, 20 μM 2OG, 50 mM HEPES pH 7.5, 20 °C, SPE-MS, mean ± S.D., n = 3): 0.0178 ± 0.0013 µM/s
Km (human His6–AspH315–758 [1]; peptide as varied substrate, 0.1 μM His6–AspH315–758, 100 μM LAA, 20 μM FAS, 20 μM 2OG, 50 mM HEPES pH 7.5, 20 °C, SPE-MS, mean ± S.D., n = 3, read-out: Km): 1.19 ± 0.26 µM
kcat/Km (human His6–AspH315–758 [1]; peptide as varied substrate, 100 μM LAA, 20 μM FAS, 20 μM 2OG, pH 7.5, 20 °C, mean ± S.D., n = 3): 170000 ± 50000 M⁻¹ s⁻¹
kcat (human His6–AspH315–758 [1]; peptide as varied substrate, based on active enzyme 90.8 nM (2,4-PDCA titration), 100 μM LAA, 20 μM FAS, 20 μM 2OG, pH 7.5, 20 °C, mean ± S.D., n = 3): 0.20 ± 0.03 s⁻¹
substrate/product inhibition of AspH activity (human His6–AspH315–758 [1]; up to 16 μM hFX–CP101–119): neither hFX–CP101–119 nor its hydroxylated product inhibited AspH activity
time to complete hydroxylation (human His6–AspH315–758 [5]; SPE-MS): 7 min
Hydroxylation t = 15 min (human His6–AspH315–758 [5]; % conversion by SPE-MS): >95%
Hydroxylation t = 200 min (human His6–AspH315–758 [5]; % conversion by SPE-MS): >95%
Hydroxylation t = 15 min (human His6–AspH315–758 [5]; % conversion by SPE-MS, listed as hFX-CP101-119): > 95%

Molecule: hFX–EGFD1_86–124: EGFD1 (amino acids 86–124) of human coagulation factor X (DGDQCETSPCQNQGKCKDGLGEYTCTCLEGFEGKNCELF-NH2; also: mixture of canonical and noncanonical disulfide isomers; UniProt P00742 86-124, looked up, fragment)
conversion at which hydroxylation slowed (consumption of the noncanonical disulfide isomer) (human His6–AspH315–758 [5]; after 5 min): ~45%

B1: human His6–AspH315–758 (Homo sapiens) (protein)
chain: RKTDDPEQKAKVKKKKPKLLNKFDKTIKAELDAAEKLRKRGKIEEAVNAFKELVRKYPQSPRARYGKAQCEDDLAEKRRSNEVLRGAIETYQEVASLPDVPADLLKLSLKRRSDRQQFLGHMRGSLLTLQRLVQLFPNDTSLKNDLGVGYLLIGDNDNAKKVYEEVLSVTPNDGFAKVHYGFILKAQNKIAESIPYLKEGIESGDPGTDDGRFYFHLGDAMQRVGNKEAYKWYELGHKRGHFASVWQRSLYNVNGLKAQPWWTPKETGYTELVKSLERNWKLIRDEGLAVMDKAKGLFLPEDENLREKGDWSQFTLWQQGRRNENACKGAPKTCTLLEKFPETTGCRRGQIKYSIMHPGTHVWPHTGPTNCRLRMHLGLVIPKEGCKIRCANETKTWEEGKVLIFDDSFEHEVWQDASSFRLIFIVDVWHPELTPQQRRSLPAI
notes: a pET-28a(+) vector encoding for N-terminal His6-tagged AspH315–758 (His6–AspH315–758) was transformed into Escherichia coli BL21 (DE3) cells; made in house; host or cells: Escherichia coli BL21 (DE3)
kcat [6]: 0.16 ± 0.03 s⁻¹
